This passage reports time constant of inhibition of NaV1.5 currents, IC50 of inhibition of NaV1.5 currents, whole-cell patch clamp on HEK 293T cells, FS50 from 0.1 nM to 100 μM and reduction of the control peak amplitude of the NaV1.5 current results from article PMC5098211.

Assay [1] deals with human NaV1.5 voltage-gated sodium channel (human) (UniProt Q14524).
Assay [2] shares this target. This is another data set of the same source.

Chain of UniProt Q14524 (Q14524 whole entry): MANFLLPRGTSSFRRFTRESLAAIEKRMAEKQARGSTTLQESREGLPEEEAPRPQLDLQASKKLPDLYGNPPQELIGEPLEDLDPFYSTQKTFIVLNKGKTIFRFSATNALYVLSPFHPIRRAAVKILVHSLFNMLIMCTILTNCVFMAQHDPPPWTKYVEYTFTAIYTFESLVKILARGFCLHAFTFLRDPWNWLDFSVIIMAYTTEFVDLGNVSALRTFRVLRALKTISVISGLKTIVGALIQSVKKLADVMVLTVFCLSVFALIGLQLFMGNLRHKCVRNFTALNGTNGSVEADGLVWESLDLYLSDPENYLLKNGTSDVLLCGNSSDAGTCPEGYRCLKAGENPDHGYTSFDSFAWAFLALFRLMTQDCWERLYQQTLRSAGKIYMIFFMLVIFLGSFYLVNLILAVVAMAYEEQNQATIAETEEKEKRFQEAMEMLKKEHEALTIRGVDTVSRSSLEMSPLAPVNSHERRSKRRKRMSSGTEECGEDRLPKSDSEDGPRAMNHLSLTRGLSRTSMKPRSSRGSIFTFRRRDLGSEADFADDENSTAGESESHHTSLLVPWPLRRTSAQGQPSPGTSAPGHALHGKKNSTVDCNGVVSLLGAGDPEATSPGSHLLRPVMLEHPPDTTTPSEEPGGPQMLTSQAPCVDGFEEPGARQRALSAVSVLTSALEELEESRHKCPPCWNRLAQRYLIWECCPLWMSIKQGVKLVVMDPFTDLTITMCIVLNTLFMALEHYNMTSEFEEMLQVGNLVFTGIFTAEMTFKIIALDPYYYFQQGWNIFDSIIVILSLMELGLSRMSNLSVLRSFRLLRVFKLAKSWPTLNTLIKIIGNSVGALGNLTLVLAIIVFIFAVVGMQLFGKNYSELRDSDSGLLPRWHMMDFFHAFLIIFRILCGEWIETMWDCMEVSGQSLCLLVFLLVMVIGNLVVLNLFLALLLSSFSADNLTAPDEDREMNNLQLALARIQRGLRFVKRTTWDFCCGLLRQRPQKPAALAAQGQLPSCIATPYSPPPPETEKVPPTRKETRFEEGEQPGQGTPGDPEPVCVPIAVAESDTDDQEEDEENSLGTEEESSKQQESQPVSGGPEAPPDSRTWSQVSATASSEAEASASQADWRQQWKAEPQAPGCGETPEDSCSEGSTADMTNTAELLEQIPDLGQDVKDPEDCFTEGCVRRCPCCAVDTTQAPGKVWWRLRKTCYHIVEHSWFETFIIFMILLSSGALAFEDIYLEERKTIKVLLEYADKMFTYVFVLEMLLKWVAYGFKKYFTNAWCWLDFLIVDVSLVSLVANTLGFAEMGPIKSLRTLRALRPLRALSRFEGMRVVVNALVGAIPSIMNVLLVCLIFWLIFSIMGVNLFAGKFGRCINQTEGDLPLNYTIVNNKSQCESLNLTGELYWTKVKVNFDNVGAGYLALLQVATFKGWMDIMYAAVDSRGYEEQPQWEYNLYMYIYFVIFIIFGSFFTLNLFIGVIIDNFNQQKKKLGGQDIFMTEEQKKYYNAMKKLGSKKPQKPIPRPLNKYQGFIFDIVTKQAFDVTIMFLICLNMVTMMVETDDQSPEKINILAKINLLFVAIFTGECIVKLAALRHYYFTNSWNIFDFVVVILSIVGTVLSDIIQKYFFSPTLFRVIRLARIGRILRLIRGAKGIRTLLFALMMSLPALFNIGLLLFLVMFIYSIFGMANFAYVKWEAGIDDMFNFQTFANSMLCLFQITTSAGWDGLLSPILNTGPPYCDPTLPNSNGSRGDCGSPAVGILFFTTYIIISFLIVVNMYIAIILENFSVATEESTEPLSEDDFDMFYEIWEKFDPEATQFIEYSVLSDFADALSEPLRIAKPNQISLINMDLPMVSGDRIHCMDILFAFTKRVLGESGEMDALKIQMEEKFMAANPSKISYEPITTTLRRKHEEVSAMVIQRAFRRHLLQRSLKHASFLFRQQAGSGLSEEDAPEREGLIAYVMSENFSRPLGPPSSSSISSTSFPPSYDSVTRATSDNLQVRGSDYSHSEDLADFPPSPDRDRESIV

In turn, “FS50, salivary protein from the flea Xenopsylla cheopis (from UniProt A2IAD2 20-96) (natural protein)” had a time constant of inhibition of NaV1.5 currents at 5 μM FS50, whole-cell patch clamp on HEK 293T cells in assay [1] of 15 s. In assay [2], this substance had an IC50 of inhibition of NaV1.5 currents, whole-cell patch clamp on HEK 293T cells, FS50 from 0.1 nM to 100 μM of 1580 nM and a reduction of the control peak amplitude of the NaV1.5 current at 10 μM FS50, whole-cell patch clamp on HEK 293T cells (at 30 μM the remaining inward current was eliminated completely) of 82.5%.
